Tests used:
[1] = biological target: SEL1L S658P (mouse knock-in) (mouse (endogenous in MEFs and P0 liver)) (UniProt Q9Z2G6); assay: co-IP; IP of endogenous SEL1L from P0 mouse liver lysates (WT, Sel1L^S658P, Sel1L^L709P); same lysis buffer; DERL2 eluted with 0.1 M glycine pH 2.5; immunoblot with quantification
[2] = biological target: SEL1L S658P (mouse knock-in) (mouse (endogenous in MEFs and P0 liver)) (UniProt Q9Z2G6); assay: co-IP; IP of endogenous SEL1L (1 ug anti-SEL1L, Protein A agarose, overnight 4 C) from MEF lysates (WT, Sel1L^S658P, Sel1L^L709P, Sel1L^P699T, Sel1L^ERCre KO); 150 mM NaCl, 25 mM Tris-HCl pH 7.5, 0.2% NP-40, 0.1% Triton X-100; immunoblot, prey band normalised to bait
[3] = biological target: HRD1 (mouse) (mouse (endogenous in MEFs and P0 liver)) (UniProt Q9DBY1); assay: co-IP; reciprocal IP of endogenous HRD1 (anti-HRD1, Protein A agarose) from MEF lysates; same lysis buffer; immunoblot

With “HRD1 (mouse) (from UniProt Q9DBY1 1-612) (enzyme)” the reduction of HRD1 association against WT [1] was 80% and the reduction of HRD1 binding against WT [2] was 60%.

“SEL1L S658P (mouse knock-in) (from UniProt Q9Z2G6 22-790) (natural protein)” showed a reduction of SEL1L–HRD1 binding against WT [3] of 60%.

B1: DERL2 (mouse) (natural protein)
chain: MAYQSLRLEYLQIPPVSRAYTTACVLTTAAVQLELITPFQLYFNPELIFKHFQIWRLITNFLFFGPVGFNFLFNMIFLYRYCRMLEEGSFRGRTADFVFMFLFGGFLMTLFGLFVSLVFLGQAFTIMLVYVWSRRNPYVRMNFFGLLNFQAPFLPWVLMGFSLLLGNSIIVDLLGIAVGHIYFFLEDIFPNQPGGIRILKTPSILRTIFDTPDEDPNYNPLPEERPGGFAWGEGQRLGG
B1 was tested, and the decrease of DERL2 interaction against WT [1] was 60%.

— publication PMC12891039
